# Test results taken from the Immune Epitope Database (IEDB).
# Assays:
# HLA-B*07:02 = experiment: IEDB peptide-MHC binding, purified MHC/competitive/radioactivity; filed as Kd, often an IC50 or EC50 that approximates it; ≥ and ≤ were set here for values at or beyond the usual limits of such assays
# HLA-B*35:01 = experiment: as above
# HLA-B*51:01 = experiment: as above
# HLA-B*53:01 = experiment: as above
# HLA-B*54:01 = experiment: as above
# HLA-A*02:12 [1] = experiment: IEDB peptide-MHC binding, purified MHC/direct/fluorescence; filed as Kd, often an IC50 or EC50 that approximates it; ≥ and ≤ were set here for values at or beyond the usual limits of such assays; details: source organism: Vibrio cholerae V52
# HLA-A*69:01 = experiment: as above
# HLA-A*02:01 [2] = experiment: as above
# HLA-A*02:03 = experiment: as above; details: source organism: Variola virus
# HLA-A*02:11 = experiment: as above
# HLA-A*11:01 = experiment: IEDB peptide-MHC binding, purified MHC/competitive/fluorescence; filed as Kd, often an IC50 or EC50 that approximates it; ≥ and ≤ were set here for values at or beyond the usual limits of such assays
# HLA-A*03:01 [3] = experiment: as above
# HLA-A*31:01 [4] = experiment: as above
# HLA-A*02:01 [5] = experiment: as above; details: source organism: Listeria monocytogenes EGD-e
# HLA-A*02:12 [6] = experiment: as above; details: source organism: Listeria monocytogenes EGD-e
# HLA-A*26:01 = experiment: as above
# HLA-A*29:02 [7] = experiment: as above
# HLA-B*15:01 [8] = experiment: as above; details: source organism: Listeria monocytogenes EGD-e
# HLA-B*18:01 [9] = experiment: as above
# HLA-B*27:03 = experiment: as above
# HLA-B*39:01 = experiment: as above
# HLA-B*46:01 [10] = experiment: as above
# HLA-B*57:01 [11] = experiment: as above
# HLA-A*24:03 = experiment: as above; details: source organism: Burkholderia pseudomallei K96243
# HLA-B*15:17 = experiment: as above; details: source organism: Burkholderia pseudomallei K96243
# HLA-A*01:01 = experiment: IEDB peptide-MHC binding, purified MHC/direct/fluorescence; filed as Kd, often an IC50 or EC50 that approximates it; ≥ and ≤ were set here for values at or beyond the usual limits of such assays; details: source organism: Yellow fever virus
# HLA-A*03:01 [12] = experiment: as above
# HLA-A*29:02 [13] = experiment: as above; details: source organism: Yellow fever virus
# HLA-A*31:01 [14] = experiment: as above; details: source organism: Yellow fever virus
# HLA-B*15:01 [15] = experiment: as above; details: source organism: Yellow fever virus
# HLA-B*18:01 [16] = experiment: as above; details: source organism: Yellow fever virus
# HLA-B*27:05 = experiment: as above; details: source organism: Yellow fever virus
# HLA-B*40:01 = experiment: as above; details: source organism: Yellow fever virus
# HLA-B*44:02 = experiment: as above; details: source organism: Yellow fever virus
# HLA-B*46:01 [17] = experiment: as above; details: source organism: Yellow fever virus
# HLA-B*48:01 = experiment: as above; details: source organism: Yellow fever virus
# HLA-B*57:01 [18] = experiment: as above; details: source organism: Yellow fever virus
# HLA-B*58:01 = experiment: as above; details: source organism: Yellow fever virus
# [19] = source organism: Vaccinia virus WR
# [20] = source organism: Camelpox virus M-96
# [21] = source organism: Encephalitozoon cuniculi GB-M1
# [22] = source organism: Mammarenavirus guanaritoense
# [23] = source organism: Listeria monocytogenes EGD-e
# [24] = source organism: Burkholderia pseudomallei K96243
# [25] = source organism: SARS coronavirus Tor2
# [26] = source organism: Yellow fever virus
# [27] = source organism: Triticum aestivum
# [28] = source organism: Mammarenavirus brazilense
sequence,measurement,setting,value
DPTFQLLNM,Kd,HLA-B*07:02; [19],≥ 77.5 µM
same,Kd,HLA-B*35:01; [19],1.13 µM
same,Kd,HLA-B*51:01; [19],3.35 µM
same,Kd,HLA-B*53:01; [19],0.237 µM
same,Kd,HLA-B*54:01; [19],≥ 78.1 µM
FLILCSVLL,Kd,HLA-A*02:12 [1],0.007 µM
same,Kd,HLA-A*69:01; source organism: Vibrio cholerae,4.18 µM
FLQQSIFRF,Kd,HLA-A*02:01 [2]; [20],0.154 µM
same,Kd,HLA-A*02:03,0.747 µM
same,Kd,HLA-A*02:11; source organism: Variola virus,0.002 µM
same,Kd,HLA-A*69:01; [20],≥ 20 µM
HAGAKSFYK,Kd,HLA-A*11:01; source organism: Influenza A virus (A/California/04/2009(H1N1)),0.0055 µM
ILSFPYLFK,Kd,HLA-A*03:01 [3]; [21],0.0029 µM
same,Kd,HLA-A*11:01; [21],0.0038 µM
same,Kd,HLA-A*31:01 [4]; [21],≥ 20 µM
KPINLSNSV,Kd,HLA-B*07:02; [22],0.0229 µM
same,Kd,HLA-B*35:01; [22],0.188 µM
same,Kd,HLA-B*51:01; [22],2.16 µM
same,Kd,HLA-B*53:01; [22],1.15 µM
same,Kd,HLA-B*54:01; [22],0.193 µM
LAIVTTPLV,Kd,HLA-A*02:01 [5],0.0272 µM
same,Kd,HLA-A*02:12 [6],0.144 µM
same,Kd,HLA-A*03:01 [3]; [23],≥ 20 µM
same,Kd,HLA-A*26:01; [23],≥ 20 µM
same,Kd,HLA-A*29:02 [7]; [23],≥ 20 µM
same,Kd,HLA-B*15:01 [8],≥ 20 µM
same,Kd,HLA-B*18:01 [9]; [23],≥ 20 µM
same,Kd,HLA-B*27:03; [23],≥ 20 µM
same,Kd,HLA-B*39:01; [23],≥ 20 µM
same,Kd,HLA-B*46:01 [10]; [23],≥ 20 µM
same,Kd,HLA-B*57:01 [11]; [23],≥ 20 µM
LMRRFRFTV,Kd,HLA-A*03:01 [3]; [24],≥ 20 µM
same,Kd,HLA-A*24:03,≥ 20 µM
same,Kd,HLA-A*26:01; [24],≥ 20 µM
same,Kd,HLA-A*31:01 [4]; [24],0.262 µM
same,Kd,HLA-B*15:17,≥ 20 µM
same,Kd,HLA-B*18:01 [9]; [24],≥ 20 µM
same,Kd,HLA-B*27:03; [24],≥ 20 µM
same,Kd,HLA-B*39:01; [24],≥ 20 µM
same,Kd,HLA-B*46:01 [10]; [24],≥ 20 µM
same,Kd,HLA-B*57:01 [11]; [24],≥ 20 µM
MPASWVMRIM,Kd,HLA-B*07:02; [25],0.00851 µM
same,Kd,HLA-B*35:01; [25],0.0182 µM
same,Kd,HLA-B*51:01; [25],0.00861 µM
same,Kd,HLA-B*53:01; [25],0.0628 µM
same,Kd,HLA-B*54:01; [25],0.0686 µM
NPAWRKAVFI,Kd,HLA-B*07:02; [25],3.37 µM
same,Kd,HLA-B*35:01; [25],≥ 69.9 µM
same,Kd,HLA-B*51:01; [25],≥ 41.4 µM
same,Kd,HLA-B*53:01; [25],≥ 41.8 µM
same,Kd,HLA-B*54:01; [25],≥ 69.9 µM
PHAATIRVL,Kd,HLA-A*01:01,≥ 20 µM
same,Kd,HLA-A*02:01 [2]; [26],≥ 20 µM
same,Kd,HLA-A*03:01 [12]; [26],≥ 20 µM
same,Kd,HLA-A*29:02 [13],≥ 20 µM
same,Kd,HLA-A*31:01 [14],≥ 20 µM
same,Kd,HLA-A*69:01; [26],≥ 20 µM
same,Kd,HLA-B*15:01 [15],≥ 20 µM
same,Kd,HLA-B*18:01 [16],≥ 20 µM
same,Kd,HLA-B*27:05,≥ 20 µM
same,Kd,HLA-B*40:01,≥ 20 µM
same,Kd,HLA-B*44:02,≥ 20 µM
same,Kd,HLA-B*46:01 [17],≥ 20 µM
same,Kd,HLA-B*48:01,≥ 20 µM
same,Kd,HLA-B*57:01 [18],≥ 20 µM
same,Kd,HLA-B*58:01,≥ 20 µM
PPYCTIAPV,Kd,HLA-B*07:02; [27],0.206 µM
same,Kd,HLA-B*35:01; [27],≥ 21.5 µM
same,Kd,HLA-B*51:01; [27],≥ 27.4 µM
same,Kd,HLA-B*53:01; [27],11.6 µM
same,Kd,HLA-B*54:01; [27],1.08 µM
QPQEQVPL,Kd,HLA-B*07:02; [27],≥ 87.3 µM
same,Kd,HLA-B*35:01; [27],≥ 87.8 µM
same,Kd,HLA-B*51:01; [27],0.041 µM
same,Kd,HLA-B*53:01; [27],≥ 87.7 µM
same,Kd,HLA-B*54:01; [27],≥ 43.2 µM
RLYNFSFLN,Kd,HLA-A*02:11; source organism: Bacillus cereus H3081.97,≤ 0.001 µM
same,Kd,HLA-A*03:01 [12]; source organism: Bacillus anthracis,0.491 µM
SPPIPMSRL,Kd,HLA-B*07:02; [19],0.000766 µM
same,Kd,HLA-B*35:01; [19],≥ 53.1 µM
same,Kd,HLA-B*51:01; [19],0.912 µM
same,Kd,HLA-B*53:01; [19],9.29 µM
same,Kd,HLA-B*54:01; [19],≥ 41.5 µM
SPPLISILMI,Kd,HLA-B*07:02; [19],1.01 µM
same,Kd,HLA-B*35:01; [19],≥ 69.9 µM
same,Kd,HLA-B*51:01; [19],1.15 µM
same,Kd,HLA-B*53:01; [19],2.22 µM
same,Kd,HLA-B*54:01; [19],7.63 µM
TPTQLAETI,Kd,HLA-B*07:02; [28],1.8 µM
same,Kd,HLA-B*35:01; [28],0.66 µM
same,Kd,HLA-B*51:01; [28],1.42 µM
same,Kd,HLA-B*53:01; [28],0.183 µM
same,Kd,HLA-B*54:01; [28],15.3 µM
VPANSTVLSF,Kd,HLA-B*07:02; [25],1.71 µM
same,Kd,HLA-B*35:01; [25],0.355 µM
same,Kd,HLA-B*51:01; [25],3.25 µM
same,Kd,HLA-B*53:01; [25],0.0952 µM
same,Kd,HLA-B*54:01; [25],16.9 µM
VVIPTAALQ,Kd,HLA-A*29:02 [7]; source organism: Escherichia coli HS,0.744 µM
